The source of these data is PMC12510010 (The Journal of Biological Chemistry, 2025).

“Also recorded” adds a separate entry of the source. Ends that are not written are not given here.

Assay [1] relates to CFTR-dependent fluid secretion, organoids. Particulars: cited from earlier work.
For assay [2], the target named is Cyan- and yellow-tagged GCC catalytic domains (human). Briefly: FRET or BRET; sensitized FRET in HEK 293 cells between Cyan-GCCcat and Yellow-GCCcat, co-expressed with pCDNA3 empty vector, HA-NHERF3, HA-NHERF4, HA-NHERF4 PDZ1 or HA-NHERF4 delPDZ1; STc (1 uM) stimulation.
The next assay concerns GCC. The class given is biochemical, human.
Assay [3] deals with CFTR-dependent fluid secretion, mouse enteroids. The class given is cell-based.
Assay [4] concerns GCC catalytic domains (Cyan-GCCcat and Yellow-GCCcat). Format: cell-based.
A further assay deals with MRP4C50 and GCCC50. Format: binding. Particulars: 4 °C.
Assay [5] deals with C-terminal 50 amino acids of GCC (GCCC50). The class given is binding.
Assay [6] deals with C-terminal 50 amino acids of MRP4 (MRP4C50). Format: binding.
Assay [7] relates to FLAG-GCC in HEK-293 cells. Format: cell-based.
Another assay concerns the target T1, GST-NHERF2 (human, UniProt Q15599 1-337).
T1 construct: also called E3KARP; GST-tagged NHERF2
Put plainly: far-Western, overlay or dot blot; dot blot: GST-NHERF1-4 and GST on nitrocellulose, GCCC50 overlaid, probed with in-house anti-GCC rabbit polyclonal antibody; saturating NHERF, > 1.2 pmoles. Conditions: both partners purified.

Another assay deals with T2, GST-NHERF1 (human, UniProt O14745 1-358).
T2 construct: also called EBP50; GST-tagged NHERF1
T2 sequence (looked up): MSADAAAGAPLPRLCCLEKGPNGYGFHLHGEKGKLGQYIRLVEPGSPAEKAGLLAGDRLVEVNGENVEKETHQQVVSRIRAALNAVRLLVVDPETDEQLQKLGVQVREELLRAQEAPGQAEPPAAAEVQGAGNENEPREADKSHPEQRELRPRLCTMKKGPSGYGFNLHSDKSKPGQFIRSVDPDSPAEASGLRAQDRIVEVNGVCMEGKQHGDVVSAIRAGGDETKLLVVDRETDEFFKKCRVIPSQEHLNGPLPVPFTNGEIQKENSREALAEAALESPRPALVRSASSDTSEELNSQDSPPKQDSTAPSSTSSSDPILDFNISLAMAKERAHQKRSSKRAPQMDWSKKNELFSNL
The assay is described as above. Particulars: both partners purified.

The target of assay [8] is T3, GST-NHERF3 (human, UniProt Q5T2W1 1-519).
T3 construct: also called PDZK1; CAP70
T3 sequence (looked up): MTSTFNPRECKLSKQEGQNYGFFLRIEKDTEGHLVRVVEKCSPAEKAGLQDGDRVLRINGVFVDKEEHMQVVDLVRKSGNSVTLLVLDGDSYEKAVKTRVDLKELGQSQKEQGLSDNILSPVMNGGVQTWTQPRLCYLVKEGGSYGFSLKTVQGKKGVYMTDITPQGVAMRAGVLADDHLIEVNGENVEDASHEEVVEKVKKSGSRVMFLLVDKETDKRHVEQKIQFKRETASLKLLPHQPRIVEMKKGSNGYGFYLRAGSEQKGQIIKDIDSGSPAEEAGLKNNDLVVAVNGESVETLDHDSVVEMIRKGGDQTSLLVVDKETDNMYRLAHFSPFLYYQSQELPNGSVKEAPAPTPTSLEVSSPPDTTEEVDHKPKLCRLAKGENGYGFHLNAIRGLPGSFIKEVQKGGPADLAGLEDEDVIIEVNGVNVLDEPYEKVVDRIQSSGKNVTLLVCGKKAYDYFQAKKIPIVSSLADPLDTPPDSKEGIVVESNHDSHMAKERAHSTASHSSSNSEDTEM
The assay is described as above. Particulars: both partners purified.

Assay [9] addresses T3, GST-NHERF3. Briefly: far-Western, overlay or dot blot; slot blot (macromolecular complex assay): GST-His-S-MRP4-C50 (0, 5 and 20 ug) and GST alone on nitrocellulose, 5 ug GST-NHERF3 overnight at 4 C, then 0.5 ug purified Flag-GCC-C50 at 4 C; detected with a GCC C-terminal specific antibody. Conditions: both partners purified.
The target in another assay is HA-GCC (human, UniProt P25092 24-1073). Briefly: cell-based or functional assay.
Assay [10] deals with T4, GCC catalytic domain (GCCcat, amino acids 824-954), purified (human, UniProt P25092 824-954).
T4 construct: also called GCC catalytic subunit
Briefly: HRP-based binding assay on S-beads; 20 ug purified GCCcat immobilised on S-beads, 7.5 uM Biotin N4-195 overnight at 4 C, washed with PBS 0.2% Triton-X-100, streptavidin HRP with TMB, absorbance at 450 nm; control: S-beads without GCCcat. Particulars: both partners purified.

T4 sequence (P25092 824-954): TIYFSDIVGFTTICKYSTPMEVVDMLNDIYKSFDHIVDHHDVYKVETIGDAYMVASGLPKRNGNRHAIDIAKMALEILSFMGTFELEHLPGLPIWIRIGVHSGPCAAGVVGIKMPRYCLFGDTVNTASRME

As for `C=C[C@@]1(C)CC(=O)[C@]2(O)[C@@]3(C)[C@@H](O)CCC(C)(C)[C@@H]3[C@H](O)[C@H](OC(C)=O)[C@@]2(C)O1` [Forskolin], in assay [1], the “Fluid secretion response (organoid swelling)” value was “highly robust fluid secretion response”.

In the case of “Cyan- and yellow-tagged GCC catalytic domains (domain or fragment)”, in [2], the FRET efficiency of GCCcat oligomerization (control, empty vector) came out at 0.54.

For the molecule “H-LERPRFCLL-OH [N4-110, peptide in NHERF4 PDZ1 domain homologous to GCC catalytic domain]”, the “GCC activity (cGMP) in the presence of single peptide” value with GCC was “did not affect GCC activity”.

Consider “H-PRCDRVLHHFLRAALLQEAR-OH [N4-scrambled, scrambled peptide with same amino acid composition as N4-110 and N4-195 combined]”, for which, in assay [3], the “STc-stimulated secretion with scrambled peptide, high concentrations” value was “some non-specific inhibition was observed at high concentrations” and the “STc-stimulated secretion with scrambled peptide, lower concentrations” value is “did not reduce STc-stimulated secretion at lower concentrations”.

With H-RHAHDVARAQL-OH [N4-195], in the assay with GCC, the “GCC activity (cGMP) in the presence of single peptide” value is “did not affect GCC activity”.

Turning to HA-NHERF4 PDZ1 (domain or fragment), in [2], the FRET efficiency of GCCcat oligomerization with this protein co-expressed is 0.21.

On to “NHERF3: PDZ adaptor protein; GST-fusion protein or HA-tagged construct”, for which the “FRET efficiency of GCCcat oligomerization” value in assay [4] is reported as 0.51 ± 0.08. In the assay on MRP4C50 and GCCC50, the “Macromolecular complex formation of GCC and MRP4 via NHERF3” value is recorded as “GCC could exist in a macromolecular complex with MRP4 via NHERF3”. In assay [5], the “Binding order of NHERFs to GCC” value is given as “highest binding affinity for GCC among the NHERF proteins; also recorded: NHERF3> NHERF1> NHERF2> NHERF4”. The “Binding order of NHERFs to MRP4” value in assay [6] is given as “NHERF3> NHERF2≥ NHERF1> NHERF4”. In addition, the “Binding to GCC with increasing concentrations of STc” value in assay [7] is “not affected”.

B1: NHERF2: PDZ adaptor protein; purified as GST-fusion protein (protein)
chain: MAAPEPLRPRLCRLVRGEQGYGFHLHGEKGRRGQFIRRVEPGSPAEAAALRAGDRLVEVNGVNVEGETHHQVVQRIKAVEGQTRLLVVDQETDEELRRRQLTCTEEMAQRGLPPAHDPWEPKPDWAHTGSHSSEAGKKDVSGPLRELRPRLCHLRKGPQGYGFNLHSDKSRPGQYIRSVDPGSPAARSGLRAQDRLIEVNGQNVEGLRHAEVVASIKAREDEARLLVVDPETDEHFKRLRVTPTEEHVEGPLPSPVTNGTSPAQLNGGSACSSRSDLPGSDKDTEDGSAWKQDPFQESGLHLSPTAAEAKEKARAMRVNKRAPQMDWNRKREIFSNF
modifications: left off: GST, end not stated, kept
On to B1, for which the “Binding order of NHERFs to GCC” value in [5] is “NHERF3> NHERF1> NHERF2> NHERF4”. In addition, the “Binding order of NHERFs to MRP4” value in assay [6] was “NHERF3> NHERF2≥ NHERF1> NHERF4”.

Turning to AEFSDMIANSLQKRQAAGIRSQKPRRVASYKKGTLEYLQLNTTDKESTYF (domain or fragment, human, UniProt P25092 1024-1073, looked up) [C-terminal 50 amino acids of GCC (GCCC50)], the binding result in the assay with GST-NHERF2, with GST-NHERF1 and in the assay with GST-NHERF3 [8] was “binds” in each case.

Consider AEFSDMIANSLQKRQAAGIRSQKPRRVASYKKGTLEYLQLNTTDKESTYF (domain or fragment, human, UniProt P25092 1024-1073, looked up, also called GCCC50) [Flag-GCC-C-terminal 50 aa], for which the binding result in the assay with GST-NHERF3 [9] was “binds”.

B2: GST-NHERF4 (natural protein, human, UniProt Q86UT5 1-571, looked up)
chain: MVTPSPPGNHSLSLEAPRLHTASDLLGNHSLGLPLITALVGSRDRRGRVFSPVPVPLPTNPTTQHPTRQKLPSTLSGHRVCQAHGEPVLGLCPLLPLFCCPPHPPDPWSLERPRFCLLSKEEGKSFGFHLQQELGRAGHVVCRVDPGTSAQRQGLQEGDRILAVNNDVVEHEDYAVVVRRIRASSPRVLLTVLARHAHDVARAQLGEDAHLCPTLGPGVRPRLCHIVKDEGGFGFSVTHGNQGPFWLVLSTGGAAERAGVPPGARLLEVNGVSVEKFTHNQLTRKLWQSGQQVTLLVAGPEVEEQCRQLGLPLAAPLAEGWALPTKPRCLHLEKGPQGFGFLLREEKGLDGRPGQFLWEVDPGLPAKKAGMQAGDRLVAVAGESVEGLGHEETVSRIQGQGSCVSLTVVDPEADRFFSMVRLSPLLFLENTEAPASPRGSSSASLVETEDPSLEDTSVPSVPLGSRQCFLYPGPGGSYGFRLSCVASGPRLFISQVTPGGSAARAGLQVGDVILEVNGYPVGGQNDLERLQQLPEAEPPLCLKLAARSLRGLEAWIPPGAAEDWALASDLL
On to B2, for which the “inhibition of the cGMP formation of HA-GCC immunoprecipitated on HA beads by 200 nM purified GST-NHERF4, relative to the GST-only control” value in the assay with HA-GCC came to 38%. For the same molecule, the FRET efficiency of GCCcat oligomerization with this protein co-expressed in assay [2] turned out to be 0.17.

B3: NHERF1: PDZ adaptor protein; purified as GST-fusion protein (protein)
chain: MSADAAAGAPLPRLCCLEKGPNGYGFHLHGEKGKLGQYIRLVEPGSPAEKAGLLAGDRLVEVNGENVEKETHQQVVSRIRAALNAVRLLVVDPETDEQLQKLGVQVREELLRAQEAPGQAEPPAAAEVQGAGNENEPREADKSHPEQRELRPRLCTMKKGPSGYGFNLHSDKSKPGQFIRSVDPDSPAEASGLRAQDRIVEVNGVCMEGKQHGDVVSAIRAGGDETKLLVVDRETDEFFKKCRVIPSQEHLNGPLPVPFTNGEIQKENSREALAEAALESPRPALVRSASSDTSEELNSQDSPPKQDSTAPSSTSSSDPILDFNISLAMAKERAHQKRSSKRAPQMDWSKKNELFSNL
modifications: left off: GST, end not stated, kept
In the case of B3, the “Binding order of NHERFs to GCC” value in assay [5] was “NHERF3> NHERF1> NHERF2> NHERF4”. Further, in assay [6], the “Binding order of NHERFs to MRP4” value is “NHERF3> NHERF2≥ NHERF1> NHERF4”.

RHAHDVARAQL (not fully specified (N-terminus); also: biotin label, position not given here, also called N4-Biotin) [Biotin-N4-195 peptide]: the binding result in assay [10] is “binds”.
